Here are results for 26 sequences from the supplement of paper PMC9170038.

In the data set the test system is MS2 coat protein. Nature of the data set: apparent KD of MS2 coat protein; higher = weaker reporter binding. The settings on record: Eterna round: R107. The method in brief: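 Each design's apparent KD comes from the median of binding-curve fits to its normalised clusters. Those clusters carried RNA switches transcribed on-chip from Illumina sequencing clusters. SNAP-549-labelled MS2 coat protein was titrated onto them in twofold steps (0.7 or 1.5 nM to 3 µM; per step 0.8–1.5 h down to 10–20 min). Conditions were 100 mM Tris-HCl pH 7.5, 80 mM KCl, 4 mM MgCl2, without or with constant ligand.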

[1] abbreviates: input ligand: theophylline 20 uM.
Setting [2] is: input ligand: theophylline 2 mM.
The mark [3] stands for this setting: input ligand: tryptophan 2.4 mM.

With “AUAACAUGAGGAUCACCCAUGUAAGCAGAUACCAGCUAGGAAACUAGCCCUUGGCAGCUGCAAGGUGAUCCUGCUGCCAAGGUAU [(M1)-(M2)-(T1)-(T2)-(M)'-(T)'_Design7]”, the “apparent KD of MS2 coat protein” value runs as follows: (input ligand: arginine 13.2 mM) 117 nM; (input ligand: none) 233 nM; under setting [1], 187 nM; under setting [2], 130 nM; under setting [3], 209 nM.
For “AUAACAUGAGGAUCACCCAUGUAAGCUGAAGGAGCGGACGAAAGUCCAGGUAGGUCGCAGCGCUCCUUCUGGUGAUCUGAAGGAG [(M1)-(M2)-(Arg1)-(Arg2)-(A)'-(M)'-(A)''_Design3]” the same measures were 103 nM, 151 nM, 154 nM, 87.8 nM and 138 nM.
As to “AUAACAUGAGGAUCACCCAUGUAUUGGUAACGAGGACCGGUACGGCCGCCACUCGUAUUUUGGUGGUAUUAUAUAUAUAUGAUUA [JR_SSTryptoA_Sub017]”, the “apparent KD of MS2 coat protein” value was 24.1 nM (input ligand: arginine 13.2 mM), 28.9 nM under setting [1] and 20.6 nM under setting [2].
The matching figures for “AUAACGAGUGGUGGAUAAUCCUCAUGUAAACGAGGACCGGUACGGCCGCCACUCGAUAACAUGAGGAUCACCCAUGUAAUAAUAA [|T'-M'-Trp-Ms2|_Design17]”: 25.9 nM, 20.8 nM and 21.3 nM.
The matching figures for “AUAAUUGGGUUAAUUAGUUUUAGGUCCAGUCGAGGACCGGUACGGCCGCCACUCGUUCCGAGAUACAUGAGGAUCACCCAUGUUA [JR_ExcTryptoA_Sub015]”: 17.3 nM, 34.5 nM and 31 nM.
For “AUACAUGAGGAUCACCCAUGUAUAGUUGAAGGAGCGACCAGAGGGUCAGGUAGGUCGCAGCACAUGAGGAUCACCCAUGUAUUUU [#1 Exclusion - Arginine A Attempt #14 (Inspired by Pi)]”, the “apparent KD of MS2 coat protein” value was found to be 32.6 nM (input ligand: arginine 13.2 mM); 38 nM (input ligand: none); 40.3 nM under setting [1]; 35.1 nM under setting [2]; 27.3 nM under setting [3].
For “AUACAUGAGGAUCACCCAUGUCAUUCAGAAGGAGCGUCAUUUUAGACAGGUAGGUCGCUGAUAUUAUCUUUAUACUUUAUGUUUA [JR_ExcArginiA_Sub023]” the same measures were 19.1 nM, 18.3 nM, 27.3 nM, 18.2 nM and 19.9 nM.
The matching figures for “AUACAUGAGGAUCACCCAUGUUACACUGAAGGAGCGACAUGUUUGUCAGGUAGGUCGCAGUGAAGUUUAAUAAAUAGUUGAUCUU [#07 Same State - Arginine A]”: 37.6 nM, 57 nM, 56.8 nM, 62.6 nM and 37 nM.
For “AUACAUGAGGCGGCCGCCACUUUACAUGAGGAUCAACAUGAGGAUCACCCAUGUUACAUGUGGAUAAGGACCGGGCCUCAUGUAU [Same State Tryptophan B 2]” the same measures were 51.9 nM, 180 nM, 178 nM, 313 nM and 91.2 nM.
Take “AUACCUAAUGUUACAUUUUCCUUUUCAGAUACCAGACUUUACGUUGUCCCUUGGCAGCUGUAUCACAUGAGGAUCACCCAUGUUG [JR_SSTheophyA_Sub009]”: the “apparent KD of MS2 coat protein” value is 17.3 nM (input ligand: arginine 13.2 mM), 20.7 nM under setting [1] and 17 nM under setting [3].
Consider “AUACGUAACAGAAGGAGCGCACCGACAUGAGGAUCACCCAUGUGGGAUGGGACUCUUUUGGUGCAGGUAGGUCGCUGUCACGCAU [Beatattian]”, for which the “apparent KD of MS2 coat protein” value reads like this: (input ligand: arginine 13.2 mM) 23.7 nM; (input ligand: none) 41.4 nM; under setting [1], 99.4 nM; under setting [2], 61.2 nM; under setting [3], 40.3 nM.
As to “AUAUCAUAGAGUGAUACCAGACUACAUGAGGAUCACCCAUGUGACAUUUAAAUAUCAUUUGUCCCUUGGCAGCACAUUAAGUACA [JR_Nu_ExcTheophyB_Sub020]”, the “apparent KD of MS2 coat protein” value (input ligand: arginine 13.2 mM) was determined as 50.6 nM, the “apparent KD of MS2 coat protein” value under setting [1] came to 79.8 nM and the “apparent KD of MS2 coat protein” value under setting [3] was found to be 61.6 nM.
On to “AUAUUAAUCGGAAGGAGCGGUACAUGAGGAUCACCCAUGUGCUAAGCUAGCAGAUCCCGUUACCAGGUAGGUCGCCGAGUUAUGA [Titeonra]”, for which the “apparent KD of MS2 coat protein” value runs as follows: (input ligand: arginine 13.2 mM) 35.6 nM; (input ligand: none) 24 nM; under setting [1], 30.9 nM; under setting [2], 29.5 nM; under setting [3], 23.4 nM.
For “AUAUUAGACCUGGAUACCAGCGACAUGAGGAUCACCCAUGUAUGUGCAUCAGCCAUGAUAUGCCCUUGGCAGCCACCGAGGUCGU [YYTMULLIN]”, the “apparent KD of MS2 coat protein” value is 14.1 nM (input ligand: arginine 13.2 mM), 17.9 nM under setting [1] and 15.1 nM under setting [3].
Regarding “AUCAUGGCCAUCGAUACCAGCUACAUGAGGAUCACCCAUGUAAACGGCCCGGUGAGAUGUAGCCCUUGGCAGCGAAGGGUCAAGG [Ratimatiqu]”, the “apparent KD of MS2 coat protein” value is 12.4 nM (input ligand: arginine 13.2 mM); 16.5 nM (input ligand: none); 23.1 nM under setting [1]; 120 nM under setting [2]; 17 nM under setting [3].
The matching figures for “AUCCAUAGCCGAAGGAGCGCAGUAGGAUGACAUGAGGAUCACCCAUGUGUGUGAUGUGGAUUGCAGGUAGGUCGCGGAGUGGGAU [Exclusion - Arginine B (Freestyle 6)]”: 35 nM, 58.7 nM, 135 nM, 63 nM and 47.2 nM.
Take “AUCGUACCUGAUGAUACCAGCAAUUGCUCGUAACAUGAGGAUCACCCAUGUGAUCAGUGAUGCCCUUGGCAGCAUGAUCGGUGCA [Same State - Theophylline B (Freestyle 19)]”: the “apparent KD of MS2 coat protein” value reads like this: (input ligand: arginine 13.2 mM) 52.8 nM; under setting [1], 183 nM; under setting [3], 248 nM.
The matching figures for “AUCGUACCUGGUGAUACCAGCAAUUGCUCGUGACAUGAGGAUCACCCAUGUGGCCAGUGAUGCCCUUGGCAGCAUGGUCGGUGCA [Same State - Theophylline B (Freestyle 24)]”: 72.4 nM, 167 nM and 122 nM.
The matching figures for “AUGCAACAUGAGGAUCACCCAUGUGGUGAUACCAGUCGACAAGUAGACCCUUGGCAGCACAGCCGAUAUCGAGAGAGAUUUUUGG [theeternabot_sameState_MS2_Theo_A_23]”: 64.4 nM, 476 nM and 824 nM.
Consider “AUGCCGGGCCGAAGGAGCGCAAUAGAAUGACAUGAGGAUCACCCAUGUGUGUGAUGUGGGUUGCAGGUAGGUCGCGGCCCGGCAU [#12 Exclusion - Arginine B]”, for which the “apparent KD of MS2 coat protein” value runs as follows: (input ligand: arginine 13.2 mM) 17.6 nM; (input ligand: none) 42.1 nM; under setting [1], 80.2 nM; under setting [2], 62.7 nM; under setting [3], 68.3 nM.
Regarding “AUGUCGUUGAAUAUAGCGGCUUGGAGUGAUACCAGCAUGAUCCAAUGCCCUUGGCAGCAUAACAUGAGGAUCACCCAUGUUCCAG [SSTheo A #26]”, the “apparent KD of MS2 coat protein” value was 32.7 nM (input ligand: arginine 13.2 mM), 68.7 nM under setting [1] and 30.1 nM under setting [3].
Take “AUUCAUAACUGAAGGAGCGUGAUAUAAAUUUUUACAUGAGGAUCACCCAUGUUUCAUCGAUCACAGGUAGGUCGCAGAUUCUCAU [JR_SSArginiB_Sub012]”: the “apparent KD of MS2 coat protein” value by setting is: (input ligand: arginine 13.2 mM) 31.1 nM; (input ligand: none) 55.3 nM; under setting [1], 59.1 nM; under setting [2], 45.1 nM; under setting [3], 37.9 nM.
“AUUGUGAACCUGAUCGUAUAAUGUAGCGAUACCAGUAUAAUACAUUACCCUUGGCAGCGCGACACAUGAGGAUCACCCAUGUAAG [theeternabot_exclusion_MS2_Theo_A_10]”: the “apparent KD of MS2 coat protein” value is 19.6 nM (input ligand: arginine 13.2 mM), 26.9 nM under setting [1] and 23 nM under setting [3].
For “AUUUAUGGUCGUGAUACCAGACAUACAUGAGGAUCACCCAUGUGAAAUAACAUAAUUUAGGUCCCUUGGCAGCACUUUUUAAUUA [JR_Nu_SSTheophyB_Sub020]” the same measures were 43.9 nM, 63.6 nM and 52.4 nM.
The matching figures for “AUUUAUUGUCGUGAUACCAGACAUACAUGAGGAUCACCCAUGUUAAGUAACAUUUUUUAGGUCCCUUGGCAGCACUUUUUAAUUA [JR_Nu_SSTheophyB_Sub018]”: 30.2 nM, 36.1 nM and 25.4 nM.
With “CAAGACAUGAGGAUCACCCAUGUGGUGUACCGAGGACCGGUACGGCCGCCACUCGUUCAUCGGUCGACAAGCUACCCUUCAAGGU [theeternabot_sameState_MS2_Trp_A_7]”, the “apparent KD of MS2 coat protein” value was 25.5 nM (input ligand: arginine 13.2 mM), 40.4 nM under setting [1] and 27.7 nM under setting [2].
